The test has as its target Thrombin (Homo sapiens, UniProt P00734). The test is described as follows: thrombin inhibition activity assay (D.4), specific activity. The test is classed as biochemical. Particulars: for ACTIVITY, AFTER PEG MODIFICATION: after cysteine-PEGylation with Maleimido-PEG; for REL TO WT, BEFORE PEG MODIFICATION: activity relative to wild type PN-1; for REL TO ACTIVITY BEFORE PEG, AFTER PEG MODIFICATION: cysteine-PEGylated protein relative to same protein before PEGylation; for REL TO WT, AFTER PEG MODIFICATION: cysteine-PEGylated protein relative to wild type PN-1. As to the method: Refolded or soluble protein was tested for capacity to inhibit thrombin in a standard assay. Briefly, serial 2-fold dilutions of PN-1 variant were added to microtiter plate wells (50 μl/well), followed by 50 μl of a 30 μg/ml heparin solution, followed by 1 NIH unit of thrombin in 50 μl. These were allowed to incubate at 25° C. for 15 minutes. Residual thrombin activity was measured by the addition of 50 μl S-2238 (Kabi Pharmaceuticals) at 0.625 mg/ml. PN-1 variants were tested for their ability to inhibit urokinase using the substrate S-2444, plasmin using the substrate S-2390, tPA using the substrate S2288, Factor Xa using the substrate S-2222 or S-2765, kallikrein using the substrate S-2302, human neutrophil elastase using s-AAPV-pna (Sigma), cathepsin G using s-AAPF-pna (Sigma) in a similar manner, with or without the addition of heparin.
Each of the PN-1 site-directed mutant proteins, as well as wild type PN-1, were modified by cysteine-PEGylation using the protocol described in F.2. The activity of wild type PN-1, each of the PN-1 site-directed mutants, and the cysteine-PEGylated wild type and mutant proteins was determined using the assay described in D.4.

Data on 3 molecules can be found in US5766897A, “Cysteine-pegylated proteins” (Incyte Pharmaceuticals, Inc., priority 1995, dated 1998).

B1: E230C (conjugate, UniProt P07093 20-398, looked up, variant E230C)
Glia-derived nexin: SHFNPLSLEELGSNTGIQVFNQIVKSRPHDNIVISPHGIASVLGMLQLGADGRTKKQLAMVMRYGVNGVGKILKKINKAIVSKKNKDIVTVANAVFVKNASEIEVPFVTRNKDVFQCEVRNVNFEDPASACDSINAWVKNETRDMIDNLLSPDLIDGVLTRLVLVNAVYFKGLWKSRFQPENTKKRTFVAADGKSYQVPMLAQLSVFRCGSTSAPNDLWYNFIELPYHGCSISMLIALPTESSTPLSAIIPHISTKTIDSWMSIMVPKRVQVILPKFTAVAQTDLKEPLKVLGITDMFDSSKANFAKITTGSENLHVSHILQKAKIEVSEDGTKASAATTAILIARSSPPWFIVDRPFLFFIRHNPTGAVLFMGQINKP
modifications: PEG
For the molecule B1, the “ACTIVITY, AFTER PEG MODIFICATION” value is 0.20 NIH units of thrombin inhibited per μg PN1 (variant); the “SPECIFIC ACTIVITY, BEFORE PEG MODIFICATION” value (shortened to “SPECIFIC ACTIVITY”) was 0.071 NIH units of thrombin inhibited per μg PN1 (variant); the “REL TO WT, BEFORE PEG MODIFICATION” value stood at 0.14; the “REL TO ACTIVITY BEFORE PEG, AFTER PEG MODIFICATION” value (“REL TO ACTIVITY BEFORE PEG” for short) was determined as 2.8. Moreover, the “REL TO WT, AFTER PEG MODIFICATION” value is listed as 0.40.

B2: S263C (conjugate, UniProt P07093 20-398, looked up, variant S263C)
Glia-derived nexin: SHFNPLSLEELGSNTGIQVFNQIVKSRPHDNIVISPHGIASVLGMLQLGADGRTKKQLAMVMRYGVNGVGKILKKINKAIVSKKNKDIVTVANAVFVKNASEIEVPFVTRNKDVFQCEVRNVNFEDPASACDSINAWVKNETRDMIDNLLSPDLIDGVLTRLVLVNAVYFKGLWKSRFQPENTKKRTFVAADGKSYQVPMLAQLSVFRCGSTSAPNDLWYNFIELPYHGESISMLIALPTESSTPLSAIIPHISTKTIDSWMCIMVPKRVQVILPKFTAVAQTDLKEPLKVLGITDMFDSSKANFAKITTGSENLHVSHILQKAKIEVSEDGTKASAATTAILIARSSPPWFIVDRPFLFFIRHNPTGAVLFMGQINKP
modifications: PEG
Regarding B2, the “ACTIVITY, AFTER PEG MODIFICATION” value was 0.093 NIH units of thrombin inhibited per μg PN1 (variant); the “SPECIFIC ACTIVITY” value was 0.05 NIH units of thrombin inhibited per μg PN1 (variant); the “REL TO WT, BEFORE PEG MODIFICATION” value worked out at 0.1; the “REL TO ACTIVITY BEFORE PEG” value came to 1.86. The “REL TO WT, AFTER PEG MODIFICATION” value stood at 0.19.

B3: H252C (conjugate, UniProt P07093 20-398, looked up, variant H252C)
Glia-derived nexin: SHFNPLSLEELGSNTGIQVFNQIVKSRPHDNIVISPHGIASVLGMLQLGADGRTKKQLAMVMRYGVNGVGKILKKINKAIVSKKNKDIVTVANAVFVKNASEIEVPFVTRNKDVFQCEVRNVNFEDPASACDSINAWVKNETRDMIDNLLSPDLIDGVLTRLVLVNAVYFKGLWKSRFQPENTKKRTFVAADGKSYQVPMLAQLSVFRCGSTSAPNDLWYNFIELPYHGESISMLIALPTESSTPLSAIIPCISTKTIDSWMSIMVPKRVQVILPKFTAVAQTDLKEPLKVLGITDMFDSSKANFAKITTGSENLHVSHILQKAKIEVSEDGTKASAATTAILIARSSPPWFIVDRPFLFFIRHNPTGAVLFMGQINKP
modifications: PEG
With B3, the “ACTIVITY, AFTER PEG MODIFICATION” value is on record as 0.25 NIH units of thrombin inhibited per μg PN1 (variant); the “SPECIFIC ACTIVITY” value was 0.10 NIH units of thrombin inhibited per μg PN1 (variant); the “REL TO WT, BEFORE PEG MODIFICATION” value is on record as 0.20; the “REL TO ACTIVITY BEFORE PEG” value came to 2.5. Moreover, the “REL TO WT, AFTER PEG MODIFICATION” value came to 0.50.
